Reference: patent US20230073274A1 (NOVELMED THERAPEUTICS, published 2023)
Like-named read-outs stand apart in the source and are kept apart here.

B1: NMT16 (antibody, V domains shown)
VH: EVQLVQSGAEVKKPGASVKVSCKASGYIFTNYPIHWVRQAPGQGLEWMGFIDPGGGYDEPDERFRDRVTMTADTSTSTAYMELSSLRSEDTAVYYCARRGGGYYLDYWGQGTTVTVSS
VL: DIQMTQSPSSLSASVGDRVTITCRASQDISFFLNWYQQKPGKAPKLLIYYTSRYHSGVPSRFSGSGSGTDFTLTISSLQPEDFATYYCQHGNTLPWTFGQGTKLEIK
B2: NMT17-100 (antibody, V domains shown)
VH: EVQLVQSGAEVKKPGASVKVSCKASGYIFTNYPIHWVRQAPGQGLEWMGFIDPGGGYDEPDERFRDRVTMTADTSTSTAYMELSSLRSEDTAVYYCARRGGGYYLDYWGQGTTVTVSS
VL: DIQMTQSPSSLSASVGDRVTITCRASQDISFFLNWYQQKPGKAPKLLIYYTSRYHSGVPSRFSGSGSGTDFTLTISSLQPEDFATYYCQHGSTLPWTFGQGTKLEIK
B3: NMT17-101 (antibody, V domains shown)
VH: EVQLVQSGAEVKKPGASVKVSCKASGYIFTNYPIHWVRQAPGQGLEWMGFIDPGGGYDEPDERFRDRVTMTADTSTSTAYMELSSLRSEDTAVYYCARRGGGYYLDYWGQGTTVTVSS
VL: DIQMTQSPSSLSASVGDRVTITCRASQDISFFLNWYQQKPGKAPKLLIYYTSRYHSGVPSRFSGSGSGTDFTLTISSLQPEDFATYYCQHGSTLPWTFGQGTKLEIK
B4: NMT19 (antibody, V domains shown)
VH: EVQLVQSGAEVKKPGASVKVSCKASGHIFTNYPIHWVRQAPGQGLEWMGFIDPGGGHDEPDERFRDRVTMTADTSTSTAYMELSSLRSEDTAVYYCARRGGGYYLDYWGQGTTVTVSS
VL: DIQMTQSPSSLSASVGDRVTITCRASQDISFFLNWYQQKPGKAPKLLIYYTSRYHSGVPSRFSGSGSGTDFTLTISSLQPEDFATYYCQHGQTLPWTFGQGTKLEIK
B5: NMT20 (antibody, V domains shown)
VH: EVQLVQSGAEVKKPGASVKVSCKASGYIFTNYPIHWVRQAPGQGLEWMGFIDPGGGYDEPDERFRDRVTMTADTSTSTAYMELSSLRSEDTAVYYCARRGGGYYLDYWGQGTTVTVSS
VL: DIQMTQSPSSLSASVGDRVTITCRASQDISFFLNWYQQKPGKAPKLLIYYTSRYHSGVPSRFSGSGSGTDFTLTISSLQPEDFATYYCQHGSTLPYTFGQGTKLEIK
B6: NMT21 (antibody, V domains shown)
VH: EVQLVQSGAEVKKPGASVKVSCKASGYIFTNYPIHWVRQAPGQGLEWMGFIDPGGGYDEYAQKFQGRVTLTADTSTSTAYMELSSLRSEDTAVYYCARRGGGYYLDYWGQGTTLTVSS
VL: DIQMTQSPSSLSASVGDRVTITCRASQDISFFLNWYQQKPGKAPKLLIYYTSRYHSGVPSRFSGSGSGTDFTLTISSLQPEDFATYYCQHGQTLPWTFGQGTKLEIK
B7: NMT22 (antibody, V domains shown)
VH: EVQLVQSGAEVKKPGASVKVSCKASGYIFTNYPIHWVRQAPGQGLEWMGFIDPGGGYDESAQKFRGRVTLTADTSTSTVYMELSSLRSEDTAVYYCARRGGGYYLDYWGQGTTLTVSS
VL: DIQMTQSPSSLSASVGDRVTITCRASQDISFFLNWYQQKPGKAPKLLIYYTSRYHSGVPSRFSGSGSGTDFTLTISSLQPEDFATYYCQHGSTLPYTFGQGTKLEIK
B8: NMT27 (antibody, V domains shown)
VH: EVQLVQSGAEVKKPGASVKVSCKASGYIFTNYPIHWVRQAPGKGLEWMGFIDPGGGYDEPDERFRDRVTMTRDTSTSTVYMELSSLRSEDTAVYYCARRGGGYYLDYWGQGTLVTVSS
VL: DIQMTQSPSSLSASVGDRVTITCRASQDISFFLNWYQQKPGKAPKLLIYYTSRYHSGVPSRFSGSGSGTDFTLTISSLQPEDFATYYCQHGSTLPRTFGQGTKVEIK
B9: NMT28-100 (antibody, V domains shown)
VH: EVQLVQSGAEVKKPGASVKVSCKASGYIFTNYPIHWVRQAPGQGLEWMGFIDPGGGYDEPDERFRDRVTMTADTSTSTAYMELSSLRSEDTAVYYCARRGGGYYLDYWGQGTLVTVSS
VL: DIQMTQSPSSLSASVGDRVTITCRASQDISFFLNWYQQKPGKAPKLLIYYTSRYHSGVPSRFSGSGSGTDFTLTISSLQPEDFATYYCQHGQTLPWTFGQGTKVEIK
B10: NMT28-101 (antibody, V domains shown)
VH: EVQLVQSGAEVKKPGASVKVSCKASGYIFTNYPIHWVRQAPGQGLEWMGFIDPGGGYDEPDERFRDRVTMTADTSTSTAYMELSSLRSEDTAVYYCARRGGGYYLDYWGQGTLVTVSS
VL: DIQMTQSPSSLSASVGDRVTITCRASQDISFFLNWYQQKPGKAPKLLIYYTSRYHSGVPSRFSGSGSGTDFTLTISSLQPEDFATYYCQHGQTLPWTFGQGTKVEIK
B11: NMT18-100 (antibody, V domains shown)
VH: EVQLVQSGAEVKKPGASVKVSCKASGYIFTNYPIHWVRQAPGQGLEWMGFIDPGGGYDEPDERFRDRVTMTADTSTSTAYMELSSLRSEDTAVYYCARRGGGYYLDYWGQGTTVTVSS
VL: DIQMTQSPSSLSASVGDRVTITCRASQDISFFLNWYQQKPGKAPKLLIYYTSRYHSGVPSRFSGSGSGTDFTLTISSLQPEDFATYYCQHGQTLPWTFGQGTKLEIK
B12: NMT18-101 (antibody, V domains shown)
VH: EVQLVQSGAEVKKPGASVKVSCKASGYIFTNYPIHWVRQAPGQGLEWMGFIDPGGGYDEPDERFRDRVTMTADTSTSTAYMELSSLRSEDTAVYYCARRGGGYYLDYWGQGTTVTVSS
VL: DIQMTQSPSSLSASVGDRVTITCRASQDISFFLNWYQQKPGKAPKLLIYYTSRYHSGVPSRFSGSGSGTDFTLTISSLQPEDFATYYCQHGQTLPWTFGQGTKLEIK
B13: NMT23 (antibody, V domains shown)
VH: EVQLVQSGAEVKKPGASVKVSCKASGYIFTNYPIHWVRQAPGKGLEWMGFIDPGGGHDEYADSVKGRVTMTRDTSTSTVYMELSSLRSEDTAVYYCARRGGGYYLDYWGQGTLVTVSS
VL: DIQMTQSPSSLSASVGDRVTITCRASQDISFFLNWYQQKPGKAPKLLIYYTSRYHSGVPSRFSGSGSGTDFTLTISSLQPEDFATYYCQHGSTLPWTFGQGTKVEIK
B14: NMT24 (antibody, V domains shown)
VH: EVQLVQSGAEVKKPGASVKVSCKASGYIFTNYPIHWVRQAPGKGLEWMGFIDPGGGHDEYADSVKGRVTMTRDTSTSTVYMELSSLRSEDTAVYYCARRGGGYYLDYWGQGTLVTVSS
VL: DIQMTQSPSSLSASVGDRVTITCRASQDISFFLNWYQQKPGKAPKLLIYGASSYHSGVPSRFSGSGSGTDFTLTISSLQPEDFATYYCQHGQTLPRTFGQGTKVEIK
B15: NMT26 (antibody, V domains shown)
VH: EVQLVESGGGLVQPGRSLRLSCAASGYIFTNYPIHWVRQAPGKGLEWVSFIDPGGGHIDYADSVEGRFTISRDNAKNSLYLQMNSLRAEDTAVYYCAKRGGGYYLDYWGQGTLVTVSS
VL: DIQMTQSPSSLSASVGDRVTITCRASQDISFFLNWYQQKPGKAPKLLIYYTSRYHSGVPSRFSGSGSGTDFTLTISSLQPEDVATYYCQHGSTLPYTFGQGTKVEIK

Tests used:
human properdin [1] = target: T1, human properdin (human, UniProt P27918 28-469); test: ELISA, human properdin coated on the plate, OD 450 nm
T1 sequence (P27918 28-469 limits assumed): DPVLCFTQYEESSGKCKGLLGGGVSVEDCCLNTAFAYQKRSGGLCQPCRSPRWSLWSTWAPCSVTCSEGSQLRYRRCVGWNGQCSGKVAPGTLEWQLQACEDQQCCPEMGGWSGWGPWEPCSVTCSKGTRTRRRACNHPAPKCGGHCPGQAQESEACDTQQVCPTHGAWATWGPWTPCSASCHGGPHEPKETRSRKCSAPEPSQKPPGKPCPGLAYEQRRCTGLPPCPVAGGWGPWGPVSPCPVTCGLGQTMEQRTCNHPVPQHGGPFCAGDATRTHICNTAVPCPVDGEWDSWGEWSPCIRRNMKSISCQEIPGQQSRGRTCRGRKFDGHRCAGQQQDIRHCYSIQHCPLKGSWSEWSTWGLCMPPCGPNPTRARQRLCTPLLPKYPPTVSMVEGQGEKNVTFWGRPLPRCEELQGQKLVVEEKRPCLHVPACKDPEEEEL
Experimental: (§1) Polystyrene microtiter plates were coated with human (2.0 μg/50 μl per well) properdin in phosphate buffered saline (PBS) overnight at 4° C. After aspirating the properdin solution, the wells were blocked with PBS containing 1% bovine serum albumin (BSA) (Sigma-Aldrich, St. Louis, Mo.) for 2 hours at room temperature. Wells without peptide or properdin coating served as background controls. Aliquots of the test antibody in blocking solution were added to the properdin coated wells and allowed to incubate for 1 hour to allow binding to occur. Following a 1 hour incubation at room temperature, the plate was rinsed with PBS five times and incubated with 1:2000 diluted anti-properdin polyclonal antibody.

human properdin [2] = target: T1, human properdin; test: cell-based or functional assay
human properdin [3] = target: T1, human properdin; test: cell-based or functional assay; remark: listed apart in the source
human properdin [4] = target: T1, human properdin; test: ELISA, human properdin coated on plate
Experimental: as §1

human properdin [5] = target: T1, human properdin; test: ELISA, properdin coated on the plate, OD 450 nm
human properdin [6] = target: T1, human properdin; test: cell-based or functional assay; remark: listed apart in the source
human properdin [7] = target: T1, human properdin; test: properdin binding assay (method of Example 8, not restated)
human properdin [8] = target: T1, human properdin; test: cell-based or functional assay; remark: listed apart in the source
human properdin [9] = target: T1, human properdin; test: cell-based or functional assay; remark: listed apart in the source
human properdin [10] = target: T1, human properdin; test: cell-based or functional assay; remark: listed apart in the source
human properdin [11] = target: T1, human properdin; test: ELISA, properdin coated on the plate, OD 450 nm; remark: listed apart in the source

EC50 (read off the curve) (human properdin [1]) [nM] | Binding Affinity (human properdin [4]) [pM] | EC50 (read off the curve) (human properdin [5]) [nM] | C3b (µg/mL); inhibition of AP mediated C3b formation and deposition (human properdin [6]) [µg/mL] | MAC (µg/mL); inhibition of MAC formation (human properdin [6]) [µg/mL] | Affinity (human properdin [7]) [pM] | IC50 (read off the curve): C3b deposition (sheet title: LPS C3b 10% NHS) (human properdin [8]) [µg/mL] | also measured | Binder
0.3 to 0.4 | 315 | – | – | – | – | – | IC50 (read off the curve): properdin deposition (AP activation on LPS, 10% normal human serum) (human properdin [2]): ~1 µg/mL; MAC (µg/Ml); inhibition of MAC formation (human properdin [3]): 3 µg/mL; Properdin (µg/mL); inhibition of properdin deposition (human properdin [3]): 4 µg/mL | B1
– | – | ~0.3 | 1 | 1 | 263 | ~0.4 | – | B2
– | – | ~0.5 | 1 | 1 | 499 | ~0.5 | – | B3
~0.5 | 486 | – | – | – | – | – | IC50 (read off the curve): properdin deposition (AP activation on LPS, 10% normal human serum) (human properdin [9]): ~10 µg/mL | B4
~0.3 | 297 | – | – | – | – | – | IC50 (read off the curve): C3b deposition (AP activation on LPS, normal human serum) (human properdin [10]): ~0.8 µg/mL; MAC (µg/Ml); inhibition of MAC formation (human properdin [3]): 25 µg/mL; Properdin (µg/mL); inhibition of properdin deposition (human properdin [3]): 30 µg/mL; IC50 (read off the curve): properdin deposition (AP activation on LPS, 10% normal human serum) (human properdin [9]): ~1 µg/mL | B5
0.3 to 0.4 | 353 | – | – | – | – | – | IC50 (read off the curve): C3b deposition (AP activation on LPS, normal human serum) (human properdin [10]): ~0.5 µg/mL; MAC (µg/Ml); inhibition of MAC formation (human properdin [3]): 8 µg/mL; Properdin (µg/mL); inhibition of properdin deposition (human properdin [3]): 8 µg/mL; IC50 (read off the curve): properdin deposition (AP activation on LPS, 10% normal human serum) (human properdin [9]): ~1 µg/mL | B6
0.3 to 0.4 | 335 | – | – | – | – | – | IC50 (read off the curve): properdin deposition (AP activation on LPS, 10% normal human serum) (human properdin [9]): ~9 µg/mL | B7
– | – | – | – | – | – | – | binding result (human properdin [11]): binds | B8
– | – | 0.3 to 0.4 | 1 | 3 | 318 | ~0.5 | – | B9
– | – | ~0.4 | 1 | 3 | 425 | ~0.5 | – | B10
– | – | 0.3 to 0.4 | 1 | 1 | 322 | ~0.5 | – | B11
– | – | ~0.6 | 1 | 3 | 590 | ~0.5 | – | B12
– | – | – | – | – | – | – | EC50 (read off the curve) (human properdin [11]): ~0.2 nM | B13
– | – | – | – | – | – | – | binding result (human properdin [11]): no binding (tested: about 13 nM) | B14
– | – | – | – | – | – | – | binding result (human properdin [11]): no binding (tested: about 13 nM) | B15
